In patent US20080063657A1 (VAXINNATE, published 2008):

Molecular target: TLR5 (UniProt O60602 21-858)
Test: cell-based or functional assay

Sequence of TLR5 (O60602 21-858 limits assumed): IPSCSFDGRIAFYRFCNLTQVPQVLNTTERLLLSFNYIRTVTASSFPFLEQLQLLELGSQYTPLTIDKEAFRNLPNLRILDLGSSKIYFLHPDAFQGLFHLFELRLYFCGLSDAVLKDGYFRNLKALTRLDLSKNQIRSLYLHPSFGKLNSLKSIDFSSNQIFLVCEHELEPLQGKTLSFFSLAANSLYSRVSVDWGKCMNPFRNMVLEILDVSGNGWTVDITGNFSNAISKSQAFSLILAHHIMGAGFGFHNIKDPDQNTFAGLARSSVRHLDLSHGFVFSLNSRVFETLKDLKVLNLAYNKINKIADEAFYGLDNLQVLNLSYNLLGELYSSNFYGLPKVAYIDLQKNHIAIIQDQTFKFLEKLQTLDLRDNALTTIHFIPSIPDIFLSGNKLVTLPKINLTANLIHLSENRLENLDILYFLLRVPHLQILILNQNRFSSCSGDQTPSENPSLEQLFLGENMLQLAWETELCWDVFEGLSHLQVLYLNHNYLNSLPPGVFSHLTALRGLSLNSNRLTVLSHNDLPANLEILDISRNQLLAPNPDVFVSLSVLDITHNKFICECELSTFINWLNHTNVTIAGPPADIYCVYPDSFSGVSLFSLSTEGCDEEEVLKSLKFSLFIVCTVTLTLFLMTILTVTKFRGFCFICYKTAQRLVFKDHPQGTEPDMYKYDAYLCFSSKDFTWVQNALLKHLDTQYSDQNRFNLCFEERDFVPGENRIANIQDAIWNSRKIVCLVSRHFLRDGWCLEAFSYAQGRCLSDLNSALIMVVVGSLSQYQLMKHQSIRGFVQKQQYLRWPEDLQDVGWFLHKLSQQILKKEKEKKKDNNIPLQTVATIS

B1: STF2.EIII+ fusion protein (other)
chain: MAQVINTNSLSLLTQNNLNKSQSALGTAIERLSSGLRINSAKDDAAGQAIANRFTANIKGLTQASRNANDGISIAQTTEGALNEINNNLQRVRELAVQSANSTNSQSDLDSIQAEITQRLNEIDRVSGQTQFNGVKVLAQDNTLTIQVGANDGETIDIDLKQINSQTLGLDSLNVQKAYDVKDTAVTTKAYANNGTTLDVSGLDDAAIKAATGGTNGTASVTGGAVKFDADNNKYFVTIGGFTGADAAKNGDYEVNVATDGTVTLAAGATKTTMPAGATTKTEVQELKDTPAVVSADAKNALIAGGVDATDANGAELVKMSYTDKNGKTIEGGYALKAGDKYYAADYDEATGAIKAKTTSYTAADGTTKTAANQLGGVDGKTEVVTIDGKTYNASKAAGHDFKAQPELAEAAAKTTENPLQKIDAALAQVDALRSDLGAVQNRFNSAITNLGNTVNNLSEARSRIEDSDYATEVSNMSRAQILQQAGTSVLAQANQVPQNVLSLLRKGNSKLEGQLEFPRTSMEKLQLKGTTYGVCSKAFKFLGTPADTGHGTVVLELQYTGTDGPCKVPISSVASLNDLTPVGRLVTVNPFVSVATANAKVLIELEPPFGDSYIVVGRGEQQINHHWHKSGSSIGK
- TLR-5 EC50 (IL-8 in supernatant of HEK293 cells, ELISA), batch 052: > 5000 ng/mL
- TLR-5 EC50 (IL-8 in supernatant of HEK293 cells, ELISA), batch 054: 1200 ng/mL
- TLR-5 EC50 (IL-8 in supernatant of HEK293 cells, ELISA), batch 057: 198 ng/mL
